In patent US20240122847A1, “ORAL POLYPEPTIDE FORMULATIONS” (Bhami's Research Laboratory, Pvt. Ltd., priority 2022, published 2024):
Read-outs that look alike come from different tables or passages of the source.

Tests used:
[1] = rat, in vivo
Method: Pharmacokinetic analysis was conducted in Female rats weighing 220-250 grams for 2 days. Rats in the oral treatment group was fasted overnight prior to the test sample administration. All the test animals in the treatment groups were administered with respective test formulation to the pre-designated animals. The animal was restrained and its head was held vertically, the jaws were pulled away, the tongue was gently lifted with a forceps followed by placement of a polypeptide formulation as described herein buccally/sublingually. After placing a polypeptide formulation as described herein, the snout was held together for about 1-2 mins to prevent the chewing of the polypeptide formulation. The time of dosage of each animal was noted. Blood samples were collected at aforementioned time points 0 min, 15 min, 30 min, 1 hour, 2 hours, 4 hours, 8 hours, 12 hours, 24 hours, and 48 hours into an EDTA-blood collection tubes for the separation of plasma to determine insulin levels by ELISA. Plasma samples collected at different time points were analyzed by ELISA kit according to ABBEXA protocol. This kit is based on sandwich enzyme-linked immuno-sorbent assay technology. An antibody, anti-insulin was pre-coated onto a 96-well plate. Standards, test samples, and biotin-conjugated reagent were added to the wells and incubated. The HRP-conjugated reagent was then added, and the whole plate was incubated. Unbound conjugates were removed using wash buffer at each stage. TMB substrate was used to quantify the HRP enzymatic reaction. After TMB substrate was added, only wells that contain sufficient INS will produce a blue colored product, which then changes to yellow after adding the acidic stop solution. The intensity of the yellow color is proportional to the INS amount bound on the plate. The Optical Density (OD) was measured spectrophotometrically at 450 nm in a microplate reader, from which the concentration of INS can be calculated.
Insulin was analyzed in plasma using a specific enzyme linked immunosorbent assay (ELISA). Pharmacokinetic endpoints were determined using noncompartmental methods using PK Solutions software. AUC was approximated using the trapezoidal rule on the observed concentrations. C max for each Insulin dose was derived as the maximum of all valid concentrations, and t max was then determined as the corresponding time point to C max. The terminal elimination rate constant (λz) was estimated by log-linear regression on the terminal part of the concentration-time curve, and t ½ was then calculated as t½=ln 2/λz.

[2] = in vivo
[3] = minipig, in vivo
Method: Pharmacokinetic analysis was conducted in Female Minipigs weighing 12±1 kg for 2 days. Pigs in the treatment group were fasted overnight prior to the test sample administration. All the test animals in the treatment groups were administered with respective test formulation to the pre-designated animals. The animal was restrained and its head was held vertically, the jaws were pulled away, the tongue was gently lifted with a forceps followed by placement of a polypeptide formulation as described herein buccally/sublingually. After placing a polypeptide formulation as described herein, the snout was held together for about 1-2 mins to prevent the chewing of the polypeptide formulation. The time of dosage of each animal was noted. Blood samples were collected at aforementioned time points 0 min, 15 min, 30 min, 1 hour, 2 hours, 4 hours, 8 hours, 12 hours, 24 hours, and 48 hours into an EDTA-blood collection tubes for the separation of plasma to determine insulin levels by ELISA. Plasma samples collected at different time points were analyzed by ELISA kit according to ABBEXA protocol. This kit is based on sandwich enzyme-linked immuno-sorbent assay technology. An antibody, anti-insulin was pre-coated onto a 96-well plate. Standards, test samples, and biotin-conjugated reagent were added to the wells and incubated. The HRP-conjugated reagent was then added, and the whole plate was incubated. Unbound conjugates were removed using wash buffer at each stage. TMB substrate was used to quantify the HRP enzymatic reaction. After TMB substrate was added, only wells that contain sufficient INS will produce a blue colored product, which then changes to yellow after adding the acidic stop solution. The intensity of the yellow color is proportional to the INS amount bound on the plate. The Optical Density (OD) was measured spectrophotometrically at 450 nm in a microplate reader, from which the concentration of INS can be calculated.
Insulin was analyzed in plasma using a specific enzyme linked immunosorbent assay (ELISA). Pharmacokinetic endpoints were determined using noncompartmental methods using PK Solutions software. AUC was approximated using the trapezoidal rule on the observed concentrations. C max for each Insulin dose was derived as the maximum of all valid concentrations, and t max was then determined as the corresponding time point to C max. The terminal elimination rate constant (λz) was estimated by log-linear regression on the terminal part of the concentration-time curve, and t ½ was then calculated as t ½=ln 2/λz.

[4] = Pharmacokinetics of hGH in minipigs, sugar truffle buccal/sublingual vs intravenous, plasma hGH ELISA; assay type: in vivo; conditions: for Mean hGH levels: pigs, plasma
Method: Pharmacokinetic analysis was conducted in Female Minipigs weighing 12±1 kg for 2 days. Pigs in the oral treatment group was either fasted overnight or fed prior to the test sample administration. All the test animals in the treatment groups were administered with respective test formulation to the pre-designated animals. The animal was restrained and its head was held vertically, the jaws were pulled away, the tongue was gently lifted with a forceps followed by placement of a polypeptide formulation as described herein buccally/sublingually. After placing a polypeptide formulation as described herein, the snout was held together for about 1-2 mins to prevent the chewing of the polypeptide formulation. The time of dosage of each animal was noted. […] Plasma samples collected at different time points were analyzed by ELISA kit according to Creative Diagnostics protocol. This kit is based on sandwich enzyme-linked immuno-sorbent assay technology. […] Standards, test samples, and biotin-conjugated reagent were added to the wells and incubated. The HRP-conjugated reagent was then added, and the whole plate was incubated. Unbound conjugates were removed using wash buffer at each stage. TMB substrate was used to quantify the HRP enzymatic reaction.
Pharmacokinetic endpoints were determined using noncompartmental methods using PK Solutions software. AUC was approximated using the trapezoidal rule on the observed concentrations. […] The terminal elimination rate constant (λz) was estimated by log-linear regression on the terminal part of the concentration-time curve, and t ½ was then calculated as t ½=ln 2/X z.

[5] = minipigs, buccal/sublingual hGH formulation
[6] = minipigs, intravenous hGH formulation

With “Human Insulin R: peptide/protein hormone structurally identical to human insulin synthesized through rDNA technology; SC marketed liquid or lyophilized microparticles in sugar truffle shell” the “AUC 0-inf/D_obs” value ([1]; 0.52 mg) was 4373.827 mU/L*h/(mg), the “AUC 0-inf/D_pred” value ([1]; 0.52 mg) was 4364.913 mU/L*h/(mg) and the “AUC 0-inf_obs” value ([1]; 0.52 mg) was 2274.390 mU/L*h. For the same substance, the “AUC 0-inf_pred” value ([1]; 0.52 mg) was 2269.755 mU/L*h, the “AUC 0-t” value ([1]; 0.52 mg) was 2204.699 mU/L*h and the “AUC t-inf_obs” value ([1]; 0.52 mg) was 69.691 mU/L*h. The “AUC t-inf_pred” value ([1]; 0.52 mg) was 65.056 mU/L*h, the Cl/F_obs ([1]; 0.52 mg) was 0.000 (mg)/(mU/L)/h and the Cl/F_pred ([1]; 0.52 mg) was 0.000 (mg)/(mU/L)/h. The Cmax ([1]; 0.52 mg) was 331.520 mU/L, the “MRT 0-inf_obs” value ([1]; 0.52 mg) was 11.202 h and the “MRT 0-inf_pred” value ([1]; 0.52 mg) was 11.097 h. The “MRT 0-t” value ([1]; 0.52 mg) was 9.580 h, the Tmax ([1]; 0.52 mg) was 0.250 h and the Vz/F_obs ([1]; 0.52 mg) was 0.003 (mg)/(mU/L). For the same substance, the Vz/F_pred ([1]; 0.52 mg) was 0.003 (mg)/(mU/L), the t½ ([1]; 0.52 mg) was 10.064 h and the “AUC 0-inf/D_obs” value ([1]; sc, 0.087 mg) was 6997.06 mU/L*h/(mg). For the same substance, the “AUC 0-inf/D_pred” value ([1]; sc, 0.087 mg) was 6935.40 mU/L*h/(mg), the “AUC 0-inf_obs” value ([1]; sc, 0.087 mg) was 2427.98 mU/L*h and the “AUC 0-inf_pred” value ([1]; sc, 0.087 mg) was 2406.58 mU/L*h. The “AUC 0-t” value ([1]; sc, 0.087 mg) was 2382.00 mU/L*h, the “AUC t-inf_obs” value ([1]; sc, 0.087 mg) was 45.98 mU/L*h and the “AUC t-inf_pred” value ([1]; sc, 0.087 mg) was 24.58 mU/L*h. The Cl/F_obs ([1]; sc, 0.087 mg) was 0.00 (mg)/(mU/L)/h, the Cl/F_pred ([1]; sc, 0.087 mg) was 0.00 (mg)/(mU/L)/h and the Cmax ([1]; sc, 0.087 mg) was 332.03 mU/L. For the same substance, the “MRT 0-inf_obs” value ([1]; sc, 0.087 mg) was 8.70 h, the “MRT 0-inf_pred” value ([1]; sc, 0.087 mg) was 8.26 h and the “MRT 0-t” value ([1]; sc, 0.087 mg) was 7.74 h. For the same substance, the Tmax ([1]; sc, 0.087 mg) was 0.50 h, the Vz/F_obs ([1]; sc, 0.087 mg) was 0.00 (mg)/(mU/L) and the Vz/F_pred ([1]; sc, 0.087 mg) was 0.00 (mg)/(mU/L). For the same substance, the t½ ([1]; sc, 0.087 mg) was 7.21 h, the “bioavailability when compared to SC or IV administration” value [2] was “greater than 7%” and the “AUC 0-inf/D_obs” value ([3]; 2.08 mg) was 7418.052 mU/L*h/(mg). The “AUC 0-inf/D_pred” value ([3]; 2.08 mg) was 7439.299 mU/L*h/(mg), the “AUC 0-inf_obs” value ([3]; 2.08 mg) was 2574.064 mU/L*h and the “AUC 0-inf_pred” value ([3]; 2.08 mg) was 2581.437 mU/L*h. The “AUC 0-t” value ([3]; 2.08 mg) was 2511.461 mU/L*h, the “AUC t-inf_obs” value ([3]; 2.08 mg) was 62.603 mU/L*h and the “AUC t-inf_pred” value ([3]; 2.08 mg) was 69.975 mU/L*h. The Cl/F_obs ([3]; 2.08 mg) was 0.000 (mg)/(mU/L)/h, the Cl/F_pred ([3]; 2.08 mg) was 0.000 (mg)/(mU/L)/h and the Cmax ([3]; 2.08 mg) was 330.950 mU/L. The “MRT 0-inf_obs” value ([3]; 2.08 mg) was 11.492 h, the “MRT 0-inf_pred” value ([3]; 2.08 mg) was 11.639 h and the “MRT 0-t” value ([3]; 2.08 mg) was 10.214 h. The Tmax ([3]; 2.08 mg) was 0.500 h, the Vz/F_obs ([3]; 2.08 mg) was 0.002 (mg)/(mU/L) and the Vz/F_pred ([3]; 2.08 mg) was 0.002 (mg)/(mU/L). For the same substance, the t½ ([3]; 2.08 mg) was 10.234 h, the “AUC 0-inf/D_obs” value ([3]; sc, 0.347 mg) was 3483.581 mU/L*h/(mg) and the “AUC 0-inf/D_pred” value ([3]; sc, 0.347 mg) was 3434.617 mU/L*h/(mg). For the same substance, the “AUC 0-inf_obs” value ([3]; sc, 0.347 mg) was 1208.803 mU/L*h, the “AUC 0-inf_pred” value ([3]; sc, 0.347 mg) was 1191.812 mU/L*h and the “AUC 0-t” value ([3]; sc, 0.347 mg) was 1101.784 mU/L*h. For the same substance, the “AUC t-inf_obs” value ([3]; sc, 0.347 mg) was 107.019 mU/L*h, the “AUC t-inf_pred” value ([3]; sc, 0.347 mg) was 90.028 mU/L*h and the Cl/F_obs ([3]; sc, 0.347 mg) was 0.000 (mg)/(mU/L)/h. For the same substance, the Cl/F_pred ([3]; sc, 0.347 mg) was 0.000 (mg)/(mU/L)/h, the Cmax ([3]; sc, 0.347 mg) was 316.870 mU/L and the “MRT 0-inf_obs” value ([3]; sc, 0.347 mg) was 13.028 h. The “MRT 0-inf_pred” value ([3]; sc, 0.347 mg) was 12.134 h, the “MRT 0-t” value ([3]; sc, 0.347 mg) was 6.938 h and the Tmax ([3]; sc, 0.347 mg) was 2.000 h. For the same substance, the Vz/F_obs ([3]; sc, 0.347 mg) was 0.008 (mg)/(mU/L), the Vz/F_pred ([3]; sc, 0.347 mg) was 0.008 (mg)/(mU/L) and the t½ ([3]; sc, 0.347 mg) was 19.218 h.

For “hGH: human growth hormone (human recombinant), Norditropin NordiFlex; lyophilized microparticles in sugar truffle shell”, the “AUC 0-inf/D_obs” value [4, 5] was 49506.598 pg·h/mL/mg, the “AUC 0-inf/D_pred” value [4, 5] was 49536.628 pg·h/mL/mg and the “AUC 0-inf_obs” value [4, 5] was 123.766495 ng·h/mL. The “AUC 0-inf_pred” value [4, 5] was 123.84157 ng·h/mL, the “AUC 0-t” value [4, 5] was 118.956091 ng·h/mL and the “AUC t-inf_obs” value [4, 5] was 4.810404 ng·h/mL. The “AUC t-inf_pred” value [4, 5] was 4.885479 ng·h/mL, the “AUMC 0-inf_obs” value [4, 5] was 1203569.518 pg/ml*h^2 and the “AUMC 0-inf_pred” value [4, 5] was 1208579.228 pg/ml*h^2. For the same substance, the “AUMC 0-t” value [4, 5] was 882575.168 pg/ml*h^2, the “AUMC t-inf_obs” value [4, 5] was 320994.350 pg/ml*h^2 and the “AUMC t-inf_pred” value [4, 5] was 326004.060 pg/ml*h^2. For the same substance, the Cl/F_obs [4, 5] was 0.000 (mg)/(pg/ml)/h, the Cl/F_pred [4, 5] was 0.000 (mg)/(pg/ml)/h and the Clast_obs [4, 5] was 0.25684 ng/mL. For the same substance, the Clast_pred [4, 5] was 0.260848 ng/mL, the Cmax [4, 5] was 27.12344 ng/mL and the Lambda_z [4, 5] was 0.053 h⁻¹. For the same substance, the “MRT 0-inf_obs” value [4, 5] was 9.725 h, the “MRT 0-inf_pred” value [4, 5] was 9.759 h and the “MRT 0-t” value [4, 5] was 7.419 h. For the same substance, the Tlag [4, 5] was 0.000 h, the Tlast [4, 5] was 48.000 h and the Tmax [4, 5] was 1.000 h. For the same substance, the Vz/F_obs [4, 5] was 0.000 (mg)/(pg/ml), the Vz/F_pred [4, 5] was 0.000 (mg)/(pg/ml) and the t½ [4, 5] was 12.982 h. For the same substance, the “AUC 0-inf/D_obs” value [4, 6] was 485023.532 pg·h/mL/mg, the “AUC 0-inf/D_pred” value [4, 6] was 479198.128 pg·h/mL/mg and the “AUC 0-inf_obs” value [4, 6] was 160.057765 ng·h/mL. The “AUC 0-inf_pred” value [4, 6] was 158.135382 ng·h/mL, the “AUC 0-t” value [4, 6] was 154.059131 ng·h/mL and the “AUC t-inf_obs” value [4, 6] was 5.998634 ng·h/mL. The “AUC t-inf_pred” value [4, 6] was 4.076251 ng·h/mL, the “AUMC 0-inf_obs” value [4, 6] was 1696005.242 pg/ml*h^2 and the “AUMC 0-inf_pred” value [4, 6] was 1578826.575 pg/ml*h^2. The “AUMC 0-t” value [4, 6] was 1330359.118 pg/ml*h^2, the “AUMC 0-t/0-inf_pred” value [4, 6] was 0.843 and the “AUMC t-inf_obs” value [4, 6] was 365646.123 pg/ml*h^2. The “AUMC t-inf_pred” value [4, 6] was 248467.457 pg/ml*h^2, the C0 [4, 6] was 18.14454 ng/mL and the Cl_obs [4, 6] was 0.000 (mg)/(pg/ml)/h. The Clast_obs [4, 6] was 0.46304 ng/mL, the Clast_pred [4, 6] was 0.31465 ng/mL and the Cmax [4, 6] was 22.5132 ng/mL. For the same substance, the Lambda_z [4, 6] was 0.077 h⁻¹, the “MRT 0-inf_obs” value [4, 6] was 10.596 h and the “MRT 0-inf_pred” value [4, 6] was 9.984 h. The “MRT 0-t” value [4, 6] was 8.635 h, the Tlast [4, 6] was 48.000 h and the Tmax [4, 6] was 0.500 h. The Vss_obs [4, 6] was 0.000 (mg)/(pg/ml), the Vz_obs [4, 6] was 0.000 (mg)/(pg/ml) and the t½ [4, 6] was 8.980 h. The “Mean hGH levels” value ([4]; GI- IV, time 0 hrs) was 18144.54 ± 1619.64 pg/mL, the “Mean hGH levels” value ([4]; GI- IV, time 0.08 hrs) was 20014.87 ± 620.32 pg/mL and the “Mean hGH levels” value ([4]; GI- IV, time 0.5 hrs) was 22513.2 ± 562.85 pg/mL. The “Mean hGH levels” value ([4]; GI- IV, time 1 hrs) was 22130.7 ± 728.54 pg/mL, the “Mean hGH levels” value ([4]; GI- IV, time 4 hrs) was 14910.13 ± 2908.87 pg/mL and the “Mean hGH levels” value ([4]; GI- IV, time 8 hrs) was 1159.19 ± 226.15 pg/mL. The “Mean hGH levels” value ([4]; GI- IV, time 24 hrs) was 1495.55 ± 291.77 pg/mL, the “Mean hGH levels” value ([4]; GI- IV, time 48 hrs) was 463.04 ± 90.34 pg/mL and the “Mean hGH levels” value ([4]; GII- Buccal/sublingual, time 0 hrs) was 20672.24 ± 1140.76 pg/mL. The “Mean hGH levels” value ([4]; GII- Buccal/sublingual, time 0.08 hrs) was 18582.31 ± 1303.34 pg/mL, the “Mean hGH levels” value ([4]; GII- Buccal/sublingual, time 0.5 hrs) was 26137.66 ± 4718.88 pg/mL and the “Mean hGH levels” value ([4]; GII- Buccal/sublingual, time 1 hrs) was 27123.44 ± 382.69 pg/mL. The “Mean hGH levels” value ([4]; GII- Buccal/sublingual, time 4 hrs) was 2681.8 ± 1281.33 pg/mL, the “Mean hGH levels” value ([4]; GII- Buccal/sublingual, time 8 hrs) was 2208.63 ± 86.73 pg/mL and the “Mean hGH levels” value ([4]; GII- Buccal/sublingual, time 24 hrs) was 971.98 ± 38.36 pg/mL. For the same substance, the “Mean hGH levels” value ([4]; GII- Buccal/sublingual, time 48 hrs) was 256.84 ± 13.49 pg/mL.
